Data on 3 molecules can be found in patent US20250170247A1, “CONJUGATES, AND USES THEREOF” (CITY UNIVERSITY OF HONG KONG, priority 2023, published 2025).

As a reminder, the Kd is the constant that tells how readily two partners part at equilibrium. A lower Kd goes with a tighter complex.

{5Hexynyl} = hexynyl group used for click conjugation

The target in one data set is T1, RHAU53 (Homo sapiens, UniProt Q9H2U1).
T1 construct: RHAU-specific motif containing 53 amino acids (RHAU53)
T1 sequence (Q9H2U1 53-105 limits assumed): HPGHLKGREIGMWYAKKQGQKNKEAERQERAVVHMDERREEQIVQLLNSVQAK
Particulars: It is known; cited from earlier work.

Data set [1] addresses T2, DHX36 (RHAU), full-length (UniProt Q9H2U1 Q9H2U1:1-1008).
T2 sequence: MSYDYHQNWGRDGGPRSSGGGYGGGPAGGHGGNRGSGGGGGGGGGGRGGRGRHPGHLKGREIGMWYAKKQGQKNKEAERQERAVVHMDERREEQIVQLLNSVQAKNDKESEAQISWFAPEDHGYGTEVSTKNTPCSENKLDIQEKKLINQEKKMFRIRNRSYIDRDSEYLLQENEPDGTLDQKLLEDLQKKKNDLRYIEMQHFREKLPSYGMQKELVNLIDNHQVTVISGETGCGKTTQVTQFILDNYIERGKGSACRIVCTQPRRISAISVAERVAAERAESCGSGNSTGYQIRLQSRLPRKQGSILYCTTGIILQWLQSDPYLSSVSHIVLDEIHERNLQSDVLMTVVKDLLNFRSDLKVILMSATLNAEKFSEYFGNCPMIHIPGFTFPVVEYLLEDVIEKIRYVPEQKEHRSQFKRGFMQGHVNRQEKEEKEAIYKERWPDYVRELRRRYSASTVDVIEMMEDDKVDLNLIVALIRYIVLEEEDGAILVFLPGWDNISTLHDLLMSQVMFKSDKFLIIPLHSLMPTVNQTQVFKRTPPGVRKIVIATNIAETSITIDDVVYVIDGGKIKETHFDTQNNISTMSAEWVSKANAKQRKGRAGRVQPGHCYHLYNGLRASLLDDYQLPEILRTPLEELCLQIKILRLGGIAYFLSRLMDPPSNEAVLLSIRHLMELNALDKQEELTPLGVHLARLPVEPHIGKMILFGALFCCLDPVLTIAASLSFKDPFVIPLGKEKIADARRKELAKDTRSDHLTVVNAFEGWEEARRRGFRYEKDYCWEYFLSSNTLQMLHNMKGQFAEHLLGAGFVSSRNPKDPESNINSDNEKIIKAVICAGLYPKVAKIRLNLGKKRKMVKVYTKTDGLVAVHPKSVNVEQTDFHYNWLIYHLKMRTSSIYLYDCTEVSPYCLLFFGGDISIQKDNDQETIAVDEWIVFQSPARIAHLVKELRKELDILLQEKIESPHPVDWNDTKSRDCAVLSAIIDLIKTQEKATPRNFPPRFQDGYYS
The experiment in a line: EMSA; strong binding, data not shown. Particulars: G4. (In EMSA bound probe runs differently from free probe, usually more slowly.)

The target in data set [2] is T2, DHX36 (RHAU), full-length. The experiment in a line: MST; 25 mM Tris-HCl pH 7.5, 150 mM KCl, 1 mM MgCl2, 37 C. Particulars: label: 3'-FAM; G4. As to the method:
Before the reaction, FAM labeled G4-compound conjugate was heated at 75° C. for 5 minutes and cooled down on the ice for 10 minutes. DHX36 protein was serially diluted to 16 samples from the highest concentration of […]. FAM-labeled oligonucleotides (40 nM) were added to each sample and incubated in Tris-HCl buffer (25 mM Tris-HCl, pH 7.5, 150 mM KCl, and 1 mM MgCl₂) at 37° C. for 30 minutes. Binding affinity was carried out on capillary tubes using an MST machine. The curve fitting and Kd determination were obtained from software.
Full-length DHX36 protein was then used to further confirm the recognition of the present rG4-PROTAC to G4BP via MST binding assay. […] As described above, the affinity of A_dG4_FAM to RHAU53 was nearly 4.7 times higher (Kd=[…]) than that of FAM_rG4_A (FIG. 2B). The interaction between A_dG4_FAM and DHX36 protein quantified by MST (Kd=303±55; FIG. 2D) confirmed the result, indicating a relatively weaker interaction with DHX36.

Data set [3] deals with T3, RHAU53 peptide (53-aa RHAU/DHX36 G4-binding fragment) (UniProt Q9H2U1 Q9H2U1:53-105).
T3 chain: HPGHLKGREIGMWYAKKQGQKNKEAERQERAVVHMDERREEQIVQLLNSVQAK
Put plainly: EMSA; 25 mM Tris-HCl pH 7.5, 150 mM KCl, 1 mM MgCl2, 37 C. Conditions: label: 3'-FAM. The protocol:
All oligonucleotides were heated for 5 minutes at 75° C. and cooled down for 10 minutes on ice. Different concentrations of RHAU53 peptide (0-2 μM) and 5-carboxyfluorescein (FAM)-labeled oligonucleotides or G4-compound conjugate (30 nM) were mixed in the Tris-HCl buffer (25 mM Tris-HCl, pH 7.5, 150 mM KCl and 1 mM MgCl₂). The mixture was incubated at 37° C. for 30 minutes, and 5% glycerol was then added to each sample. Bound and unbound RNAs were separated on 10% native polyacrylamide gel in 0.5× Tris/Borate/EDTA (TBE) at 4° C., 150 V for 30 minutes. The gel was scanned by scanner at 500 V and quantified by software.
To evaluate the target recognition ability of the rG4-PROTACs, the binding assay of FAM_rG4_A to RHAU53 peptide was performed by EMSA. RHAU53 peptide, the truncated DHX36 fragment, is the most important core protein domain required for rG4-RHAU interaction.

Regarding “hTERC rG4: human telomerase RNA component rG4, 5′-GGGUUGCGGAGGGUGGGCCU-3′ (SEQ ID NO: 1), the warhead targeting G4BP (RNA, 5' {5Hexynyl}, backbone not given here; further chemistry not fully specified)”, the “affinity for RHAU53” value with RHAU53 was “nanomolar affinity”. As for CGGGGCGGGUGGGGAGGGGU (ssRNA) [APP 3'UTR rG4], in data set [1], the binding result is “binds”. Regarding GGGUUGCGGAGGGUGGGCCU (ssRNA, 5'-hexynyl clicked to azide-modified AHPC) [FAM_rG4_A (hTERC rG4 WT-AHPC conjugate)], the Kd came out at 79.7 nM in data set [2] and 67.4 nM in data set [3].
